{"source": "patent US5187153A", "about": "“Methods of treatment using Alzheimer's amyloid polypeptide derivatives” (Scios Nova Inc., priority 1990, dated 1993)", "key": {"Trypsin [1]": {"biological_target": "Trypsin (Homo sapiens, UniProt P07477)", "test": "Trypsin inhibition assay, release of p-nitroaniline from N-benzoyl-D-arginine-p-nitroaniline", "type": "biochemical", "details": "HPLC peaks of the purified inhibitor", "procedure": "All 8 oligonucleotides encoding either the phoA or ompA fusions were mixed together and treated with ligase. […] The ligated constructs were then ligated into the NdeI-HindIII sites of the vector pTRP233. The ligated vectors were transfected into E. coli strain MC1061 and Amp^R colonies selected. […] Miniprep DNA was used to transfect strains W3110 and JE5505. Small scale cultures of each of the three strains were grown and induced with IAA overnight. Culture supernatants were examined for trypsin inhibitory activity. Trypsin is assayed for its ability to hydrolyze the synthetic substrate N-benzoyl-D-arginine-p-nitroaniline to release p-nitroaniline (pNA). The release of pNA as a function of time is easily monitored in a spectrophotomer and can be quantitated to measure trypsin activity. The inhibitor is detected in this assay by virtue of its ability to bind to trypsin and prevent hydrolysis of the substrate by trypsin. Inhibitory activity was detected in the culture medium for both ompA and phoA constructs in JE5505 but not W3110 or MC1061. Expression levels appeared to be higher with the phoA construct and so only this construct was used for subsequent experiments."}, "α-Thrombin": {"system": "α-Thrombin", "test": "Protease inhibition, fluorogenic MCA substrate: α-thrombin", "type": "biochemical", "from_the_text": "(§1) The effects of A4 inhibitor on serine- and thiol- proteases were examined as follows: trypsin (17,000 units/mg from porcine pancreas), factor Xa and β-thrombin (gifts from Dr. Iwanagu, Kyushu University, Fukuoka, Japan), tryptase and chymase (both from rat peritoneal mast cells purified as described in Kido et al., Arch Biochem Biophys 239:436-443 (1985)), α-chymotrypsin (0.75 U/mg from bovine pancreas), elastase (33 U/mg from porcine pancreas), papain, cathepsin B (from rat liver purified as described in Towatari et al., Eur J Biochem 102:279-289 (1979)), plasmin (0.16 U/mg from human plasma), urokinase (0.75 U/mg from human kidney cells, Sigma Chemical Co.), tissue kallikrein (50 U/mg from porcine pancreas) or plasma kallikrein (9.4 U/mg from human plasma) was preincubated with various concentrations of the inhibitor in a total volume of 1.5 ml of buffer containing bovine serum albumin (0.1 mg/ml). […] The amount of 7-amino-4-methylcoumarin liberated from the substrates was determined fluorometrically with excitation and emission wavelengths of 380 nm and 460 nm, respectively, in a Hitachi fluorescence spectrophotometer, 650-10MS model, as reported in Kido et al. (1988), supra. Protein concentration was determined with bicinchoninic acid protein assay reagent as described by Smith et al., Anal. Biochem. 150:76-85 (1985). […]"}, "Plasmin": {"biological_target": "T1, Plasmin (Homo sapiens, UniProt P00747)", "T1 construct": "plasmin (0.16 U/mg from human plasma); from tissue; host or cells: human plasma", "T1 sequence (P00747 581-810 limits assumed)": "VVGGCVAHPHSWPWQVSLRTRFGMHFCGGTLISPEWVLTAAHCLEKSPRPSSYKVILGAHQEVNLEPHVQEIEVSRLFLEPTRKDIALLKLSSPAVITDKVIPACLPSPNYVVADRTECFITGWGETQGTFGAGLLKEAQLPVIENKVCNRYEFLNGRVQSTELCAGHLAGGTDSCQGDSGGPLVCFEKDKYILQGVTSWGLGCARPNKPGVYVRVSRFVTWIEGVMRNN", "T1 sequence (P00747 97-580 partner limits assumed)": "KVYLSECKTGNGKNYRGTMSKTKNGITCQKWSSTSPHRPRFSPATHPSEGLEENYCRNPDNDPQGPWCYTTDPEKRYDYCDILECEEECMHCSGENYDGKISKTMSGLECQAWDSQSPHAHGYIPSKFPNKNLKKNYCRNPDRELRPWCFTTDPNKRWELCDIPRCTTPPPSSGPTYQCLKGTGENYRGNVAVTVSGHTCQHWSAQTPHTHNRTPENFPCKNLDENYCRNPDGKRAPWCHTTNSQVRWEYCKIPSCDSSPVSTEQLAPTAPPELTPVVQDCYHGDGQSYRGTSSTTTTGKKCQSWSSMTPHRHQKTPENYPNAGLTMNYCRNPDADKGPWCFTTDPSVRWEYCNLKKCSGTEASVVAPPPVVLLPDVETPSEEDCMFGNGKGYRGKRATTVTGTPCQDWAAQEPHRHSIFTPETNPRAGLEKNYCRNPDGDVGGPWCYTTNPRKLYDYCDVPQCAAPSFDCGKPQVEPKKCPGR", "test": "Protease inhibition, fluorogenic MCA substrate: plasmin", "type": "biochemical", "from_the_text": "as §1"}, "Urokinase": {"biological_target": "T2, Urokinase (Homo sapiens, UniProt P00749)", "T2 construct": "urokinase (0.75 U/mg from human kidney cells, Sigma Chemical Co.); purchased Sigma Chemical Co; host or cells: human kidney cells", "test": "Protease inhibition, fluorogenic MCA substrate: urokinase", "type": "biochemical", "from_the_text": "as §1"}, "Tissue kallikrein": {"biological_target": "T3, Tissue kallikrein (Sus scrofa, UniProt P00752)", "T3 construct": "tissue kallikrein (50 U/mg from porcine pancreas); from tissue; host or cells: porcine pancreas", "T3 sequence (P00752 8-246)": "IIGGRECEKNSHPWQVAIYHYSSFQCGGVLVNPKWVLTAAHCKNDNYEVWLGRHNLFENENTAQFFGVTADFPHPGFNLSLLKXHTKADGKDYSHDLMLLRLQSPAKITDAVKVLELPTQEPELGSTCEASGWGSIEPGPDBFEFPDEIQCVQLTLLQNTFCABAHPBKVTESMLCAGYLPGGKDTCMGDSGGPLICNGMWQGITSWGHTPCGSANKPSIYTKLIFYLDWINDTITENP", "test": "Protease inhibition, fluorogenic MCA substrate: tissue kallikrein", "type": "biochemical, porcine", "from_the_text": "as §1"}, "trypsin [2]": {"biological_target": "T4, trypsin (Sus scrofa, UniProt P00761)", "T4 construct": "trypsin (17,000 units/mg from porcine pancreas); from tissue; host or cells: porcine pancreas", "T4 sequence (P00761 9-231)": "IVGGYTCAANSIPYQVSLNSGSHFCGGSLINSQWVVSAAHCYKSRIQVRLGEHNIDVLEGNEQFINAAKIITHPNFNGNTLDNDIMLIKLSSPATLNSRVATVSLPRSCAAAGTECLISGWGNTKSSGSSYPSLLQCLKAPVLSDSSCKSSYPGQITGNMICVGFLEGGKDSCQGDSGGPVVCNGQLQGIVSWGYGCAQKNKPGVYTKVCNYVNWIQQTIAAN", "test": "Protease inhibition, fluorogenic MCA substrate: trypsin", "type": "biochemical, porcine", "from_the_text": "The effects of A4 inhibitor on serine- and thiol- proteases were examined as follows: trypsin (17,000 units/mg from porcine pancreas), factor Xa and β-thrombin (gifts from Dr. Iwanagu, Kyushu University, Fukuoka, Japan), tryptase and chymase (both from rat peritoneal mast cells purified as described in Kido et al., Arch Biochem Biophys 239:436-443 (1985)), α-chymotrypsin (0.75 U/mg from bovine pancreas), elastase (33 U/mg from porcine pancreas), papain, cathepsin B (from rat liver purified as described in Towatari et al., Eur J Biochem 102:279-289 (1979)), plasmin (0.16 U/mg from human plasma), urokinase (0.75 U/mg from human kidney cells, Sigma Chemical Co.), tissue kallikrein (50 U/mg from porcine pancreas) or plasma kallikrein (9.4 U/mg from human plasma) was preincubated with various concentrations of the inhibitor in a total volume of 1.5 ml of buffer containing bovine serum albumin (0.1 mg/ml). The buffers used were as follows: 0.1 M Tris-HCl, pH 7.5, for trypsin, plasmin and urokinase; 0.1 M Tris-HCl, pH 8.0, for chymase and α-chymotrypsin; 0.1 M Tris-HCl, pH 8.0, containing 10 mM CaCl2 for factor Xa and α-thrombin; 0.1 M Tris-HCl, pH 8.5, for tryptase M; 0.1 M Tris-HCl, pH 7.8, for plasma and tissue kallikrein; 0.1 M Tris-HCl, pH 7.0 for elastase; 50 mM acetate, pH 6.0, containing 1 mM EDTA and 4 mM cysteine for papain and cathepsin B. After preincubation for 5 min at 25° C., 7.5 μl of 20 mM concentrations of the fluorogenic substrate shown in Table I were added and the residual activity of each protease was measured in a quartz cuvette maintained thermostatically at 25° C. The amount of 7-amino-4-methylcoumarin liberated from the substrates was determined fluorometrically with excitation and emission wavelengths of 380 nm and 460 nm, respectively, in a Hitachi fluorescence spectrophotometer, 650-10MS model, as reported in Kido et al. (1988), supra. Protein concentration was determined with bicinchoninic acid protein assay reagent as described by Smith et al., Anal. Biochem. 150:76-85 (1985). […]"}, "α-chymotrypsin": {"biological_target": "T5, α-chymotrypsin (Bos taurus, UniProt P00766)", "T5 construct": "α-chymotrypsin (0.75 U/mg from bovine pancreas); from tissue; host or cells: bovine pancreas", "test": "Protease inhibition, fluorogenic MCA substrate: α-chymotrypsin", "type": "biochemical, bovine", "from_the_text": "as §1"}, "Elastase": {"biological_target": "T6, Elastase (Sus scrofa, UniProt P00772)", "T6 construct": "elastase (33 U/mg from porcine pancreas); from tissue; host or cells: porcine pancreas", "T6 sequence (P00772 27-266)": "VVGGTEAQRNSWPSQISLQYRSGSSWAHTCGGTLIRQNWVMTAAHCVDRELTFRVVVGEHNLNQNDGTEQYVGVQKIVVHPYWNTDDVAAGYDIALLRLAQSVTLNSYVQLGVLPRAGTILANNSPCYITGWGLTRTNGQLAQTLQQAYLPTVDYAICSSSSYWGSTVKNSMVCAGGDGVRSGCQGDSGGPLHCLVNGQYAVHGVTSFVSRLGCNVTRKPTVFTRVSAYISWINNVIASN", "test": "Protease inhibition, fluorogenic MCA substrate: elastase", "type": "biochemical, porcine", "from_the_text": "as §1"}, "Cathepsin B": {"biological_target": "T7, Cathepsin B (Rattus norvegicus, UniProt P00787)", "T7 construct": "cathepsin B (from rat liver purified as described in Towatari et al); from tissue; host or cells: rat liver", "T7 sequence (P00787 80-339)": "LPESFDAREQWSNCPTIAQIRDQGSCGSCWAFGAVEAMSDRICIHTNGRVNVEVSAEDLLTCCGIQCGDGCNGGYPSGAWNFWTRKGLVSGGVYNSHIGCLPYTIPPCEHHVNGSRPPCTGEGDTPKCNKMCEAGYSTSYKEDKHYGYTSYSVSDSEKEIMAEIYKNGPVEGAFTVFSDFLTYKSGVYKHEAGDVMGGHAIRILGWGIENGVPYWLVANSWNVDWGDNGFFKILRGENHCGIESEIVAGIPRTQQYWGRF", "test": "Protease inhibition, fluorogenic MCA substrate: cathepsin B", "type": "biochemical", "from_the_text": "as §1"}, "Tryptase M": {"system": "Tryptase M", "test": "Protease inhibition, fluorogenic MCA substrate: tryptase M", "type": "biochemical, rat", "from_the_text": "as §1"}, "Plasma kallikrein": {"biological_target": "T8, Plasma kallikrein (Homo sapiens, UniProt P03952)", "T8 construct": "plasma kallikrein (9.4 U/mg from human plasma); from tissue; host or cells: human plasma", "T8 sequence (P03952 20-638)": "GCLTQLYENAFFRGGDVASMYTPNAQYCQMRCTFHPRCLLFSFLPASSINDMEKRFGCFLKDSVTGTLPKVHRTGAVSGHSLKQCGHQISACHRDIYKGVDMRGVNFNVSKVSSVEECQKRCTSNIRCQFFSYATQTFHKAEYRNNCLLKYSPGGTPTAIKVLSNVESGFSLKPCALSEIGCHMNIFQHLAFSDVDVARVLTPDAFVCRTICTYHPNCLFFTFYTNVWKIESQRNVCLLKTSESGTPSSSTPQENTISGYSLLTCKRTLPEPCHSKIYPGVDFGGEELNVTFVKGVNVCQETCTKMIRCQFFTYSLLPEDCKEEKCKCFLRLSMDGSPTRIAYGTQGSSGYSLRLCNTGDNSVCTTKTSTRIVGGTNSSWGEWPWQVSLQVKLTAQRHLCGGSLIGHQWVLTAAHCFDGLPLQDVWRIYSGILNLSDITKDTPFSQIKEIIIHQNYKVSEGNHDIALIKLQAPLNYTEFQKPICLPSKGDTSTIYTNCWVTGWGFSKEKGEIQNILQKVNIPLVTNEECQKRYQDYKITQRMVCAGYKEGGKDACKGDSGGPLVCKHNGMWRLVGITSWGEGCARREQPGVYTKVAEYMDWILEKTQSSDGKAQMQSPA", "test": "Protease inhibition, fluorogenic MCA substrate: plasma kallikrein", "type": "biochemical", "from_the_text": "as §1"}, "Chymase": {"biological_target": "T9, Chymase (Rattus norvegicus, UniProt P09650)", "T9 construct": "tryptase and chymase (both from rat peritoneal mast cells purified as described in Kido et al); from tissue; host or cells: rat peritoneal mast cells", "T9 sequence (P09650 21-260)": "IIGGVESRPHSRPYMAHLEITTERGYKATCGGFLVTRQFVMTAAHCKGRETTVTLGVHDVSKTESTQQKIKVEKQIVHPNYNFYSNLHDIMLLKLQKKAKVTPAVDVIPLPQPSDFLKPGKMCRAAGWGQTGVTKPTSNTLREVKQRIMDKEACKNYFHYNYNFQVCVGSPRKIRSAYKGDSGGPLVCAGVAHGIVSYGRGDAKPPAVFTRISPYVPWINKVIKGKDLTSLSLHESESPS", "test": "Protease inhibition, fluorogenic MCA substrate: chymase", "type": "biochemical", "from_the_text": "as §1"}, "Papain": {"biological_target": "T10, Papain (Carica papaya, UniProt P00784)", "T10 sequence (P00784 134-345)": "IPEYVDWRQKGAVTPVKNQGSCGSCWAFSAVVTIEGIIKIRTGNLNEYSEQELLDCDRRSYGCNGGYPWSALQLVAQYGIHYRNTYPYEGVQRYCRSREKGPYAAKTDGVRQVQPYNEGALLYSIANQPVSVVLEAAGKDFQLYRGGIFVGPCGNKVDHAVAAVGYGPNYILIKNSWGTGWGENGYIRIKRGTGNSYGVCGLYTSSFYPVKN", "test": "Protease inhibition, fluorogenic MCA substrate: papain", "type": "biochemical", "from_the_text": "as §1"}, "Factor Xa": {"biological_target": "Factor Xa", "test": "Protease inhibition, fluorogenic MCA substrate: factor Xa", "type": "biochemical", "details": "substrate Boc-Ile-Glu-Gly-Arg-MCA, pH 8.0, 25° C.", "from_the_text": "as §1"}}, "note": "Read-outs that look alike come from different tables or passages of the source. Where no end group is shown, it is not given here."}
{"substance": "peak 4: major HPLC peak of the purified inhibitor; full length A4i with 3 disulfide bridges (EVCSEQAETGPCRAMISRWYFDVTEGKCAPFFYGGCGGNRNNFDTEEYCMAVCGSAM; disulfide (positions not given here); UniProt P05067 289-345, looked up, fragment)", "values": [{"measurement": "activity in the trypsin inhibition assay", "setting": "Trypsin [1]", "result": "active"}]}
{"substance": "A4i: 57 amino acid Kunitz-type serine protease inhibitor encoded by the 168 bp insert of λAPCP168i4", "values": [{"measurement": "inhibition of α-thrombin (in words)", "setting": "α-Thrombin", "result": "did not inhibit"}, {"measurement": "Ki", "setting": "α-Thrombin; α-Thrombin, substrate Boc-Val-Pro-Arg-MCA, pH 8.0, 25° C.", "result": "> 1000", "unit": "nM"}, {"measurement": "inhibition of plasmin (in words)", "setting": "Plasmin", "result": "strongly inhibits"}, {"measurement": "Ki", "setting": "Plasmin; Plasmin, substrate Boc-Val-Leu-Lys-MCA, pH 7.5, 25° C.", "result": 0.075, "unit": "nM"}, {"measurement": "inhibition of urokinase (in words)", "setting": "Urokinase", "result": "did not inhibit"}, {"measurement": "Ki", "setting": "Urokinase; Urokinase, substrate Glt-Gly-Arg-MCA, pH 7.5, 25° C.", "result": "> 1000", "unit": "nM"}, {"measurement": "inhibition of tissue kallikrein (in words)", "setting": "Tissue kallikrein", "result": "inhibits"}, {"measurement": "Ki", "setting": "Tissue kallikrein; Tissue kallikrein, substrate Pro-Phe-Arg-MCA, pH 7.8, 25° C.", "result": 28.4, "unit": "nM"}, {"measurement": "inhibition of pancreatic trypsin (in words)", "setting": "trypsin [2]", "result": "inhibits"}, {"measurement": "Ki", "setting": "trypsin [2]; Trypsin, substrate Boc-Phe-Ser-Arg-MCA, pH 7.5, 25° C., read-out: Ki value", "result": 2.7, "unit": "nM"}, {"measurement": "Ki", "setting": "trypsin [2]; pancreatic trypsin, read-out: Ki", "result": 3, "unit": "nM"}, {"measurement": "inhibition of α-chymotrypsin (in words)", "setting": "α-chymotrypsin", "result": "inhibits"}, {"measurement": "Ki", "setting": "α-chymotrypsin; α-chymotrypsin", "result": 8.5, "unit": "nM"}, {"measurement": "inhibition of pancreatic elastase (in words)", "setting": "Elastase", "result": "did not inhibit"}, {"measurement": "Ki", "setting": "Elastase; Elastase, substrate Suc-Ala-Pro-Ala-MCA, pH 7.0, 25° C.", "result": "> 1000", "unit": "nM"}, {"measurement": "inhibition of cathepsin B (in words)", "setting": "Cathepsin B", "result": "did not inhibit"}, {"measurement": "Ki", "setting": "Cathepsin B; Cathepsin B, substrate Z-Phe-Arg-MCA, pH 6.0, 25° C.", "result": "> 1000", "unit": "nM"}, {"measurement": "inhibition of tryptase (in words)", "setting": "Tryptase M", "result": "strongly inhibits"}, {"measurement": "Ki", "setting": "Tryptase M; tryptase, unit inferred, read-out: dissociation constant Ki", "result": 0.22, "unit": "nM"}, {"measurement": "inhibition of serum kallikrein (in words)", "setting": "Plasma kallikrein", "result": "inhibits"}, {"measurement": "Ki", "setting": "Plasma kallikrein; Plasma kallikrein, substrate Z-Phe-Arg-MCA, pH 7.8, 25° C.", "result": 73.9, "unit": "nM"}, {"measurement": "inhibition of chymase (in words)", "setting": "Chymase", "result": "did not inhibit"}, {"measurement": "Ki", "setting": "Chymase; Chymase, substrate Suc-Leu-Leu-Val-Tyr-MCA, pH 8.0, 25° C.", "result": "> 1000", "unit": "nM"}, {"measurement": "inhibition of papain (in words)", "setting": "Papain", "result": "did not inhibit"}, {"measurement": "Ki", "setting": "Papain; Papain, substrate Z-Phe-Arg-MCA, pH 6.0, 25° C.", "result": "> 1000", "unit": "nM"}, {"measurement": "Ki", "setting": "Factor Xa", "result": 257, "unit": "nM"}]}
